Results from PMC314469, “Protein Interaction Networks by Proteome Peptide Scanning” (PLoS Biology, 2004).

T1: Boi1 SH3 (BOI1_YEAST), P38041
T1 chain: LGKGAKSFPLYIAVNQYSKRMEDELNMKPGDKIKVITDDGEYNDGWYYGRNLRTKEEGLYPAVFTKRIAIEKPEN

T2: Yfr024 SH3 (LSB3_YEAST), P43603
T2 chain: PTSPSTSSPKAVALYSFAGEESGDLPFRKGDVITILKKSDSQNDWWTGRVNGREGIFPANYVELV

T3: Rvs167 SH3 (RV167_YEAST), P39743
T3 chain: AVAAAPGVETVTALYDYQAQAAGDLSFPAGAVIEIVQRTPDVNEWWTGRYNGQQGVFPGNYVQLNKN

T4: Yhr016c SH3 (YSC84_YEAST), P32793
T4 chain: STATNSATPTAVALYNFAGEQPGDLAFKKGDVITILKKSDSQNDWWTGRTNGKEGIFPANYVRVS

T5: Boi2 SH3 (BOI2_YEAST), P39969
T5 chain: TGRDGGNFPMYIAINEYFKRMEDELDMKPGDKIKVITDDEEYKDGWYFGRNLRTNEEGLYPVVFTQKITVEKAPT


Key:
Experiment in all cases: SPOT array
[1] = molecular target: T1, Boi1 SH3 (BOI1_YEAST), P38041
[2] = molecular target: T2, Yfr024 SH3 (LSB3_YEAST), P43603
[3] = molecular target: T3, Rvs167 SH3 (RV167_YEAST), P39743
[4] = molecular target: T4, Yhr016c SH3 (YSC84_YEAST), P32793
[5] = molecular target: T5, Boi2 SH3 (BOI2_YEAST), P39969

Row | Binder | normalised SPOT signal, Boehringer light units (BLU); mean over the file's lines of this peptide [1] | normalised SPOT signal, Boehringer light units (BLU); mean over the file's lines of this peptide [2] | normalised SPOT signal, Boehringer light units (BLU); mean over the file's lines of this peptide [3] | normalised SPOT signal, Boehringer light units (BLU); mean over the file's lines of this peptide [4] | normalised SPOT signal, Boehringer light units (BLU); mean over the file's lines of this peptide [5]
1 | SHSPISPLKIETAP [YOR057W 166-179] | 196 | 38.9 | 20.2 | 45.7 | 47
2 | SGPPPRPKKPSTLK [YNL138W 352-365] | 138 | 2620 | 29 | 305 | 84.8
3 | SASPYRPQRLPAKF [YDL033C 13-26] | 514 | 2420 | 67.3 | 543 | 105
4 | SDLPSSPIKAPNVE [YHR164C 232-245] | 41.3 | 8.4 | 27.8 | 50.7 | 59.9
5 | SELPTRPSKSKTYN [YNL139C 1447-1460] | 138 | 4580 | 20.6 | 375 | 39.8
6 | SGPPLLPPRNTMKN [YJR083C 215-228] | 577 | 32900 | 25500 | 30000 | 65.5
7 | SELPKSPYRQKPTQ [YHR184W 124-137] | 1670 | 440 | 15.8 | 0 | 37.1
8 | SHLPLIPEKIKSLK [YDR419W 203-216] | 123 | 774 | 50.3 | 136 | 56.3
9 | SDKPLTPTKTSSTL [YER143W 341-354] | 110 | 150 | 100 | 377 | 53.6
10 | SFAPFFPTKRRGSW [YOR254C 500-513] | 342 | 15400 | 232 | 998 | 350
11 | SHQPYLPIKNKNIV [YDL203C 329-342] | 80.9 | 1340 | 50.4 | 99.3 | 85
12 | SKFPELPSKVHNAV [YGR264C 141-154] | 105 | 1170 | 20.5 | 132 | 32.6
13 | SGKPLFPGRDYHHQ [YGR040W 221-234] | 33.8 | 2060 | 105 | 896 | 54.4
14 | SKDPNRPTKFAFES [YML061C 386-399] | 47.1 | 162 | 37.7 | 236 | 37.9
15 | SFVPFPPFKLLTFD [YPR071W 44-57] | 75.4 | 322 | 68.3 | 290 | 28.7
16 | SENPLLPEKLSQSK [YNR016C 154-167] | 54.4 | 196 | 24.9 | 158 | 38.8
17 | SASPTLPTRRSRRL [YDL156W 62-75] | 46400 | 49400 | 77800 | 97900 | 10000
18 | SGKPKKPYRRWTPE [YDR464W 666-679] | 109 | 4000 | 196 | 407 | 28
19 | SDTPASPSKVQSFD [YMR182C 187-200] | 94.4 | 94.3 | 51.8 | 46.4 | 77.6
20 | SKGPRTPAKEILEF [YDR206W 310-323] | 176 | 380 | 53.9 | 0 | 44.4
21 | SHAPTKPTKTYKKW [YOR059C 252-265] | 111 | 3670 | 10 | 104 | 21.9
22 | SEEPTSPTRQVNPE [YER032W 443-456] | 32.5 | 52.2 | 40.3 | 303 | 26.6
